Source: US8765433B2, “Alcohol dehydrogenases (ADH) useful for fermentive production of lower alkyl alcohols” (priority 2009, dated 2014)

Test system: CC(C)C=O
Assay: isobutyraldehyde reduction kinetics (A340, initial rates)
Type: biochemical, Mucor circinelloides
Details: other: 30° C., pH 7.0, NADH specific
Excerpt: This example describes preparation of ADH-gene constructs for over-expression/purification and measurement of enzyme activities using a time-course assay. Horse-liver ADH (HLADH; A-6128) was purchased from Sigma. Achromobacter xylosoxidans SadB (SadB), Saccharomyces cerevisiae ADH6 (ScADH6) and ADH7 (ScADH7), Entamoeba histolytica ADH1 (EhADH1), Bos Taurus Aldehyde Reductase (BtARD), Beijerinckia indica subsp. Indica ATCC 9039 (BiADH), Clostridium beijerinckii ADH (CbADH), Rana perezi ADH8 (RpADH8), Rattus norvegicus ADH1 (RnADH1), Thermus sp. ATN1 ADH (TADH), Phenylobacterium zucineum HLK1 ADH (PzADH), Methylocella silvestris BL2 ADH (MsADH), Acinetobacter baumannii AYE ADH (AbADH), Geobacillus sp. WCH70 ADH (GbADH), Vanderwaltozyma polyspora DSM 70294 ADH (VpADH), Mucor circinelloides ADH (McADH), and Rhodococcus erythropolis PR4ADH (ReADH) were the candidates for which subclones were prepared for protein expression and purification.
As a routine practice, the crude extracts and purified proteins were assayed for butanol oxidation activity, in order to ensure that the recombinant proteins were active throughout the purification process. […] Alcohol oxidation activities were carried out in 50 mM sodium phosphate buffer at pH 8.8 and aldehyde reduction reactions were assayed in 190 mM potassium phosphate buffer at pH 7.0. […]
Kinetic constants of the ADH enzymes were calculated and compared to identify those candidate ADH enzymes with the most desirable properties for the conversion of isobutyraldehyde to isobutanol in the last step of the engineered pathway for isobutanol production. […] The kcat/KM is derived from the individual numbers of kcat and KM and not an experimentally determined value. […]
Seven additional candidate ADH enzymes were synthesized, expressed, and assayed according to methods such as described in Example 2. […] A comparison of KM, KI, and kcat/KM for each candidate enzyme as compared to the same parameter for SadB are given in Table 9 as a percentage of the values determined (Table 7) for SadB. […]

Mucor circinelloides ADH (McADH), SEQ ID NO: 39 (Mucor circinelloides)
Km: 30 mM
kcat: 151 s⁻¹
kcat/Km: 5000 M⁻¹ s⁻¹
